Patent US20250262210A1 (TRUSTEES OF COLUMBIA UNIVERSITY IN THE CITY OF NEW YORK, published 2025)

Assays:
[1] = target: T1, ATAD2 (human, UniProt Q6PL18 1-1390, limits assumed); assay: IP/MS, LZTR1 wild type-FLAG, U87
T1 sequence (looked up): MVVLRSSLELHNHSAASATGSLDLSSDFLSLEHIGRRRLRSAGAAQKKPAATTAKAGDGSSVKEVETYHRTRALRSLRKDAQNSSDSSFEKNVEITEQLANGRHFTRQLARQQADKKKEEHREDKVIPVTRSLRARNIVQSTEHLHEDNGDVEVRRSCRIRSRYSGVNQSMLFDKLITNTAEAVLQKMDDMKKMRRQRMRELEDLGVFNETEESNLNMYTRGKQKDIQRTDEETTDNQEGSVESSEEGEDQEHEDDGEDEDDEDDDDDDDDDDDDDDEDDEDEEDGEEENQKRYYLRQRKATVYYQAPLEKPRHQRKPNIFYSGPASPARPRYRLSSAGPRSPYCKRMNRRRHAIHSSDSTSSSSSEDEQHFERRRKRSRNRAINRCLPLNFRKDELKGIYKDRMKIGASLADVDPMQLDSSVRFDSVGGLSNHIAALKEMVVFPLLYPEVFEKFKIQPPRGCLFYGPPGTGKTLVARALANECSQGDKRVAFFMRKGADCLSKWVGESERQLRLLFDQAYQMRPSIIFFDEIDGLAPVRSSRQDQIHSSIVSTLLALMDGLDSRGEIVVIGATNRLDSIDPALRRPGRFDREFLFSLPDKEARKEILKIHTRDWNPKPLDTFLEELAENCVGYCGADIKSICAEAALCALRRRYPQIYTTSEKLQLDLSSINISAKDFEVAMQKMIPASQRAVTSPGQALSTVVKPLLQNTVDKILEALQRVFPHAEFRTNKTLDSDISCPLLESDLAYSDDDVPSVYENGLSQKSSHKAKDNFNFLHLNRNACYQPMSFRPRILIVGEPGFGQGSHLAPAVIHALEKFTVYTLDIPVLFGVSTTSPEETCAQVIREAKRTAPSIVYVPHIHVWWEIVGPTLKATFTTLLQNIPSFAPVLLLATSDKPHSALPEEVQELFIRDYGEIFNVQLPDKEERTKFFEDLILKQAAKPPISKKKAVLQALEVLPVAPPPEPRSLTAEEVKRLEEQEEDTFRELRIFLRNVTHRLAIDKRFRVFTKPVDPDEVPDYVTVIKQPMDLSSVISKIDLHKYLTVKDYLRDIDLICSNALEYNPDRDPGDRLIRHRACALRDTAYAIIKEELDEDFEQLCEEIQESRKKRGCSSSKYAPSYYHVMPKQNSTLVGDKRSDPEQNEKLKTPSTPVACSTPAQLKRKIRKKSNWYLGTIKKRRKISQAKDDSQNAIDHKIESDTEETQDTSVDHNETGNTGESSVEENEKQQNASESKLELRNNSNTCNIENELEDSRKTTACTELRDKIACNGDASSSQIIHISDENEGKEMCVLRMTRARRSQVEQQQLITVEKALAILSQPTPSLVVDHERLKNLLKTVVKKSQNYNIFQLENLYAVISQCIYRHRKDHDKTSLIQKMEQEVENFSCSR
Outline: (§1)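 Gel slices were reduced with 5 mM DTT, alkylated with 11 mM IAA and digested overnight at 37° C. with trypsin. Peptides were analysed on an Orbitrap Fusion Tribrid by LC-MS/MS.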

[2] = target: T2, GTF3C2 (human, UniProt Q8WUA4 1-911, limits assumed); assay: IP/MS, LZTR1 wild type-FLAG, U87
T2 sequence (looked up): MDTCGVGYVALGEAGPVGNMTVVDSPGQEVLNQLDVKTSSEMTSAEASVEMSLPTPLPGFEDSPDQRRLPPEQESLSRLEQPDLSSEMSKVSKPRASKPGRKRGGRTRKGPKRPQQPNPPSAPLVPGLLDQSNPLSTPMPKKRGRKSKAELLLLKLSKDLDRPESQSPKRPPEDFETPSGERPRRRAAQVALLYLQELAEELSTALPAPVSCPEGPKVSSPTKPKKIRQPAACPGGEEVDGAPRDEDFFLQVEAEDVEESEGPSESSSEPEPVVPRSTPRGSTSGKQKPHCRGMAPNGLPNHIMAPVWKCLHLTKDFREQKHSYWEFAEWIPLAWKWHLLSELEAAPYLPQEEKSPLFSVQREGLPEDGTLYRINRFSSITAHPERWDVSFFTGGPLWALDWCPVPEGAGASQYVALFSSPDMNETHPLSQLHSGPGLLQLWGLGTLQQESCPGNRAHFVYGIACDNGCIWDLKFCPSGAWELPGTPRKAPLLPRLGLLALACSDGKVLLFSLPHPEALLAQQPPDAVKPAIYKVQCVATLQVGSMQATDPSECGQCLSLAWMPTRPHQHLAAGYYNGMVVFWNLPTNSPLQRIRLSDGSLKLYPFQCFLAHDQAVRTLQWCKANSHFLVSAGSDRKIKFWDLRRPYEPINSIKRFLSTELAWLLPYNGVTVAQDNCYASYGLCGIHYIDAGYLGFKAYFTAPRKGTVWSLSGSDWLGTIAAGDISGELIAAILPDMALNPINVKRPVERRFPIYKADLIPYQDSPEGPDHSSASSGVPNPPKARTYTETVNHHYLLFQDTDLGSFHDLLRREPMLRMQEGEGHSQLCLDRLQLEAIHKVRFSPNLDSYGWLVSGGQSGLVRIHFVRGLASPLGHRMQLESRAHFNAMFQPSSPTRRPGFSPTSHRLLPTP
Outline: as §1

binding result [1]: binds
binding result [2]: binds
B1: LZTR1-FLAG (other, human, UniProt Q8N653 1-840, looked up)
chain: MAGPGSTGGQIGAAALAGGARSKVAPSVDFDHSCSDSVEYLTLNFGPFETVHRWRRLPPCDEFVGARRSKHTVVAYKDAIYVFGGDNGKTMLNDLLRFDVKDCSWCRAFTTGTPPAPRYHHSAVVYGSSMFVFGGYTGDIYSNSNLKNKNDLFEYKFATGQWTEWKIEGRLPVARSAHGATVYSDKLWIFAGYDGNARLNDMWTIGLQDRELTCWEEVAQSGEIPPSCCNFPVAVCRDKMFVFSGQSGAKITNNLFQFEFKDKTWTRIPTEHLLRGSPPPPQRRYGHTMVAFDRHLYVFGGAADNTLPNELHCYDVDFQTWEVVQPSSDSEVGGAEVPERACASEEVPTLTYEERVGFKKSRDVFGLDFGTTSAKQPTQPASELPSGRLFHAAAVISDAMYIFGGTVDNNIRSGEMYRFQFSCYPKCTLHEDYGRLWESRQFCDVEFVLGEKEECVQGHVAIVTARSRWLRRKITQARERLAQKLEQEAAPVPREAPGVAAGGARPPLLHVAIREAEARPFEVLMQFLYTDKIKYPRKGHVEDVLLIMDVYKLALSFQLCRLEQLCRQYIEASVDLQNVLVVCESAARLQLSQLKEHCLNFVVKESHFNQVIMMKEFERLSSPLIVEIVRRKQQPPPRTPLDQPVDIGTSLIQDMKAYLEGAGAEFCDITLLLDGHPRPAHKAILAARSSYFEAMFRSFMPEDGQVNISIGEMVPSRQAFESMLRYIYYGEVNMPPEDSLYLFAAPYYYGFYNNRLQAYCKQNLEMNVTVQNVLQILEAADKTQALDMKRHCLHIIVHQFTKVSKLPTLRSLSQQLLLDIIDSLASHISDKQCAELGADI
notes: Expressed in HEK 293T, HeLa or U87 cells; used as cell lysate; also called LZTR1 wild type-FLAG; LZTR1 WT; not shown: FLAG tag at the C-terminus
